Measurements reported in paper PMC7374565.

Experiments:
[1] = biological target: full-length avian ANP32A (Gallus gallus) (Gallus gallus); test: NMR titration
[2] = biological target: LRR of ANP32A alone (not stated (human and Gallus gallus ANP32A were used)); test: NMR titration

Substance “627-NLS domains of PB2, E627 form (amino acids 538-759, avian H5N1 A/duck/Shantou/4610/2003) (domain or fragment)” has a Kd [1] greater than 3 mM.
Substance “the 627 domain (E627 or K627 not stated) (domain or fragment)” has a Kd [2] greater than 1.5 mM.
